This note sets out measurements from patent US20140087995A1 (published 2014).

Numbered stars: 1 amine (or outer) side, 2 acyl side, 3 side chain; on linkers, the order of the positions; unused ones are H or OH. Bridge positions count the residues as written; N and C are the ends. Side chains are listed from the residue outwards. Ends that are not written are not given here. * marks the point of attachment. C20 diacid = O=C(O)CCCCCCCCCCCCCCCCCCC(=O)*; γGlu = O=C(O)[C@H](CCC(=O)[*:2])N[*:1]

The term IC50 denotes the concentration needed to halve the response being measured.

In experiment [1] the target is T1, human amylin receptor (amylin 3(a) receptor: human calcitonin receptor plus RAMP-3) (human, UniProt P30988 25-474; O60896 24-148).
T1 sequence (looked up) 1: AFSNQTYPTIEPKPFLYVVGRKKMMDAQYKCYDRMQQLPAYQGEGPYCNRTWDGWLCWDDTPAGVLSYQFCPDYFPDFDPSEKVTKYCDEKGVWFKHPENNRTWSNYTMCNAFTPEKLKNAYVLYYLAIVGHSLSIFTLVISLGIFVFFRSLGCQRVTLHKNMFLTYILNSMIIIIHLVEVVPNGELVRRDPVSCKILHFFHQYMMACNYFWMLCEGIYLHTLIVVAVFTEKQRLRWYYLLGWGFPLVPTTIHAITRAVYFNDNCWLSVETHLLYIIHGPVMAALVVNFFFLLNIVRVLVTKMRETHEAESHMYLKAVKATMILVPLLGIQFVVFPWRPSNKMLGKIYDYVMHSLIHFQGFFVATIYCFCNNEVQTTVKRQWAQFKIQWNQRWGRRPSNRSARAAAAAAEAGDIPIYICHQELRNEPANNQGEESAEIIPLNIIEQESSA
T1 sequence (looked up) 2: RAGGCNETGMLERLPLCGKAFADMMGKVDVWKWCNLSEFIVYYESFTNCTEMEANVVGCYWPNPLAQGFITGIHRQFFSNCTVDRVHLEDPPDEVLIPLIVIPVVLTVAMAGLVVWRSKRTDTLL
As to the kind of experiment: cell-based or functional assay.

Experiment [2] has as its target T2, human calcitonin receptor (human, UniProt P30988 25-474).
T2 sequence (looked up): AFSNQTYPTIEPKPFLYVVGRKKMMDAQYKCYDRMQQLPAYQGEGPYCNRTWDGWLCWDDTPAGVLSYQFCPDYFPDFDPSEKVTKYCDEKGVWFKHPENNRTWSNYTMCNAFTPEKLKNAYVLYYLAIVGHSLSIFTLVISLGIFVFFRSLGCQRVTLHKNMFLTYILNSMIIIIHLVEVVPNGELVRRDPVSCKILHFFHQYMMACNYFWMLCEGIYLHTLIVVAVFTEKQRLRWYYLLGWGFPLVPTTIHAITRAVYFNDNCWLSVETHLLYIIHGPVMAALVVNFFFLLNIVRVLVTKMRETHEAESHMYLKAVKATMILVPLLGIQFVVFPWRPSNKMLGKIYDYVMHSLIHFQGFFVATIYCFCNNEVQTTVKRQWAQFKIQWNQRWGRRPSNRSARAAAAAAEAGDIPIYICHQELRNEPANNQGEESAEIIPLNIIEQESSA
As to the kind of experiment: cell-based or functional assay.

The target in experiment [3] is T1, human amylin receptor (amylin 3(a) …). As to the kind of experiment: SPA competition binding, displacement of 125I-rat amylin, membranes of BHK amylin 3(a)/CRE-luc cells. The procedure: The binding assay was performed using scintillation proximity assay (SPA) beads (RPNQ0001) from PerkinElmer and cell membranes from the Amylin 3(a)/CRE-luc cells (as described in Assay (II)) were used. Membranes were prepared in the following way; the cells were rinsed with PBS and incubated with Versene for approximately 5 min before harvesting. The cells were flushed with PBS and the cell-suspension was centrifuged for 5 min at 1000 rpm. Cells were homogenized (ultrathurrax) in a buffer containing 20 mM Na-HEPES and 10 mM EDTA (pH 7.4) and centrifuged at 20.000 rpm for 15 min. The resulting pellet was resuspended, homogenized and centrifuged (20.000 rpm, 15 min) in a buffer containing 20 mM Na-HEPES and 0.1 mM EDTA (pH 7.4, buffer 2). The resulting pellet was resuspended in buffer 2 and protein concentration was measured (BCA protein Assay, Pierce). The homogenate was kept cold during the whole procedure. The membranes were kept at −80° C. until use. The assay was performed in a 384 well Optiplate (PerkinElmer) in a total volume of 40 ul. Membranes were mixed with SPA beads. Final concentration of membranes 35 ng/μL final and SPA beads was 0.05 mg/well. Test-compounds were dissolved in DMSO and further diluted in assay buffer (50 mM Hepes, pH 7.4, 1 mM CaCl2, 5 mM MgCl₂, 0.1% OA and 0.02% Tween20). […] The final mixture was incubated with shaking at 400 rpm for 120 min at 25° C. prior to centrifugation (1500 rpm, 10 min). Samples were analyzed on TopCounter™ (Packard). The IC₅₀ was calculated using (one site binding competition analysis) GraphPad Prism5 as a measure of receptor affinity.
Background: Loss of bound radioactivity is the signal in a displacement assay; it reports binding, not function.

The target in experiment [4] is T3, rat calcitonin receptor (rat, UniProt P32214 25-516).
T3 construct: whole, on cells; Cell membranes of transiently transfected BHK tk'ts 13 cells (Assay VIII); also called rCTR; rCT
T3 sequence (looked up): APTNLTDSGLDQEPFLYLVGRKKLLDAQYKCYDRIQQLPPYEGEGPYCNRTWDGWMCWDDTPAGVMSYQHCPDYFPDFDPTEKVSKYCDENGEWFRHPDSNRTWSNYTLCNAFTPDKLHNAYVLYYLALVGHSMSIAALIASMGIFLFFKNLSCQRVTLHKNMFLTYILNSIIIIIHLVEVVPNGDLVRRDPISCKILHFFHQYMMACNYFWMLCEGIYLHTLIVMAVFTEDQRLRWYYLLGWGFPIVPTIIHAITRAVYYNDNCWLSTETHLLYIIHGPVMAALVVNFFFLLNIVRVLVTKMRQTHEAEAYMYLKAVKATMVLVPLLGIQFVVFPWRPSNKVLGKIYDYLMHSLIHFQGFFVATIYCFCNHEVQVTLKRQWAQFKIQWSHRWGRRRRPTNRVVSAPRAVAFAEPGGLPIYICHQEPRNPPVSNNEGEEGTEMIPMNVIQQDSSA
As to the kind of experiment: ratio IC50 rat calcitonin receptor / IC50 rat amylin receptor.

In experiment [5] the target is T3, rat calcitonin receptor. As to the kind of experiment: SPA competition vs 125I-calcitonin, membranes with rat CTR (Assay VIII).
The target of experiment [6] is T4, rat amylin receptor (rat calcitonin receptor + rat RAMP 3) (rat, UniProt P32214 25-516; Q9JJ73 23-147).
T4 construct: whole, on cells; Cell membranes of transiently transfected BHK tk'ts 13 cells (Assay VI); also called rAmylin-R; rat amylin 3(a) receptor
T4 sequence (looked up) 1: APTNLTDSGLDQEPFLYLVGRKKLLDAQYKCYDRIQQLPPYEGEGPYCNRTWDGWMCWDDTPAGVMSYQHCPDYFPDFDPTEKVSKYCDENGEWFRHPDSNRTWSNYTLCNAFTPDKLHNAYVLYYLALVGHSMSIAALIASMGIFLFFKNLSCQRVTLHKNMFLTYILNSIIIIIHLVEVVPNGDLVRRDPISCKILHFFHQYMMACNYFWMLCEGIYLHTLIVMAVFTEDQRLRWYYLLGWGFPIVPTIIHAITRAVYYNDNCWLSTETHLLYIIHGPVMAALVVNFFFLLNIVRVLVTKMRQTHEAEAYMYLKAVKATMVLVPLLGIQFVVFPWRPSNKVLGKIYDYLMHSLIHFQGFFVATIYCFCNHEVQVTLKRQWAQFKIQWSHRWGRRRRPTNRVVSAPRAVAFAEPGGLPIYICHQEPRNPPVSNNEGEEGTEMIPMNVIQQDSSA
T4 sequence (looked up) 2: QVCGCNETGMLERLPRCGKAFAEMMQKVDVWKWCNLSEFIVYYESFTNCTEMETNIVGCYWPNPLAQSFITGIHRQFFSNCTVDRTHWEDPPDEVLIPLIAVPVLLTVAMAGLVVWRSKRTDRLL
As to the kind of experiment: SPA competition vs 125I-rat amylin, membranes with rat CTR + rat RAMP3 (Assay VI).

B1: N^α1-[(4S)-4-carboxy-4-(19-carboxynonadecanoylamino)butanoyl]-[Arg17,Pro21,Pro27,Pro31,Glu35]-h-amylin (peptide)
peptide: {C20 diacid-γGlu}-KCNTATCATQRLANFLRHSSPNFGAIPSSTPVGSETY-NH2
modifications: disulfide 2-7
SMILES: CC[C@H](C)[C@H](NC(=O)[C@H](C)NC(=O)CNC(=O)[C@H](Cc1ccccc1)NC(=O)[C@H](CC(N)=O)NC(=O)[C@@H]1CCCN1C(=O)[C@H](CO)NC(=O)[C@H](CO)NC(=O)[C@H](Cc1c[nH]cn1)NC(=O)[C@H](CCCNC(=N)N)NC(=O)[C@H](CC(C)C)NC(=O)[C@H](Cc1ccccc1)NC(=O)[C@H](CC(N)=O)NC(=O)[C@H](C)NC(=O)[C@H](CC(C)C)NC(=O)[C@H](CCCNC(=N)N)NC(=O)[C@H](CCC(N)=O)NC(=O)[C@@H](NC(=O)[C@H](C)NC(=O)[C@@H]1CSSC[C@H](NC(=O)[C@H](CCCCN)NC(=O)CC[C@H](NC(=O)CCCCCCCCCCCCCCCCCCC(=O)O)C(=O)O)C(=O)N[C@@H](CC(N)=O)C(=O)N[C@@H]([C@@H](C)O)C(=O)N[C@@H](C)C(=O)N[C@@H]([C@@H](C)O)C(=O)N1)[C@@H](C)O)C(=O)N1CCC[C@H]1C(=O)N[C@@H](CO)C(=O)N[C@@H](CO)C(=O)N[C@H](C(=O)N1CCC[C@H]1C(=O)N[C@H](C(=O)NCC(=O)N[C@@H](CO)C(=O)N[C@@H](CCC(=O)O)C(=O)N[C@H](C(=O)N[C@@H](Cc1ccc(O)cc1)C(N)=O)[C@@H](C)O)C(C)C)[C@@H](C)O
notes: also called compound 28
For B1, in experiment [1], the “Ratio hCT/hAmylin funct.” value worked out at 9.2 and the “hAmylin-R funct. EC50 (pM)” value came to 220 pM. Moreover, the “hCTR funct. EC50 (pM)” value in experiment [2] came to 2030 pM. Also, the IC50 in experiment [3] was 0.61 nM.

B2: N^ε1-[(4S)-4-carboxy-4-(19-carboxynonadecanoylamino)butanoyl]-[Glu14,Arg17,Pro21,Pro27,Arg35]-h-amylin (peptide)
peptide: K([γGlu-C20 diacid])CNTATCATQRLAEFLRHSSPNFGAIPSSTNVGSRTY-NH2
modifications: disulfide 2-7; N-terminus assumed
SMILES: CC[C@H](C)[C@H](NC(=O)[C@H](C)NC(=O)CNC(=O)[C@H](Cc1ccccc1)NC(=O)[C@H](CC(N)=O)NC(=O)[C@@H]1CCCN1C(=O)[C@H](CO)NC(=O)[C@H](CO)NC(=O)[C@H](Cc1c[nH]cn1)NC(=O)[C@H](CCCNC(=N)N)NC(=O)[C@H](CC(C)C)NC(=O)[C@H](Cc1ccccc1)NC(=O)[C@H](CCC(=O)O)NC(=O)[C@H](C)NC(=O)[C@H](CC(C)C)NC(=O)[C@H](CCCNC(=N)N)NC(=O)[C@H](CCC(N)=O)NC(=O)[C@@H](NC(=O)[C@H](C)NC(=O)[C@@H]1CSSC[C@H](NC(=O)[C@@H](N)CCCCNC(=O)CC[C@H](NC(=O)CCCCCCCCCCCCCCCCCCC(=O)O)C(=O)O)C(=O)N[C@@H](CC(N)=O)C(=O)N[C@@H]([C@@H](C)O)C(=O)N[C@@H](C)C(=O)N[C@@H]([C@@H](C)O)C(=O)N1)[C@@H](C)O)C(=O)N1CCC[C@H]1C(=O)N[C@@H](CO)C(=O)N[C@@H](CO)C(=O)N[C@H](C(=O)N[C@@H](CC(N)=O)C(=O)N[C@H](C(=O)NCC(=O)N[C@@H](CO)C(=O)N[C@@H](CCCNC(=N)N)C(=O)N[C@H](C(=O)N[C@@H](Cc1ccc(O)cc1)C(N)=O)[C@@H](C)O)C(C)C)[C@@H](C)O
notes: Acylated analogue of human amylin; also called compound 51
As to B2, the “Ratio rCT/rAmylin binding” value with rat calcitonin receptor [4] is 119. Further, the IC50 with rat calcitonin receptor [5] is 62 nM; in experiment [6], 0.523 nM.

B3: N^ε1-[(4S)-4-carboxy-4-(19-carboxynonadecanoylamino)butanoyl]-[His14,Arg17,Pro21,Pro27,Pro31]-h-amylin (peptide)
peptide: K([γGlu-C20 diacid])CNTATCATQRLAHFLRHSSPNFGAIPSSTPVGSNTY-NH2
modifications: disulfide 2-7; N-terminus assumed
SMILES: CC[C@H](C)[C@H](NC(=O)[C@H](C)NC(=O)CNC(=O)[C@H](Cc1ccccc1)NC(=O)[C@H](CC(N)=O)NC(=O)[C@@H]1CCCN1C(=O)[C@H](CO)NC(=O)[C@H](CO)NC(=O)[C@H](Cc1c[nH]cn1)NC(=O)[C@H](CCCNC(=N)N)NC(=O)[C@H](CC(C)C)NC(=O)[C@H](Cc1ccccc1)NC(=O)[C@H](Cc1c[nH]cn1)NC(=O)[C@H](C)NC(=O)[C@H](CC(C)C)NC(=O)[C@H](CCCNC(=N)N)NC(=O)[C@H](CCC(N)=O)NC(=O)[C@@H](NC(=O)[C@H](C)NC(=O)[C@@H]1CSSC[C@H](NC(=O)[C@@H](N)CCCCNC(=O)CC[C@H](NC(=O)CCCCCCCCCCCCCCCCCCC(=O)O)C(=O)O)C(=O)N[C@@H](CC(N)=O)C(=O)N[C@@H]([C@@H](C)O)C(=O)N[C@@H](C)C(=O)N[C@@H]([C@@H](C)O)C(=O)N1)[C@@H](C)O)C(=O)N1CCC[C@H]1C(=O)N[C@@H](CO)C(=O)N[C@@H](CO)C(=O)N[C@H](C(=O)N1CCC[C@H]1C(=O)N[C@H](C(=O)NCC(=O)N[C@@H](CO)C(=O)N[C@@H](CC(N)=O)C(=O)N[C@H](C(=O)N[C@@H](Cc1ccc(O)cc1)C(N)=O)[C@@H](C)O)C(C)C)[C@@H](C)O
notes: Acylated analogue of human amylin; also called compound 62
As for B3, the “Ratio rCT/rAmylin binding” value with rat calcitonin receptor [4] is 42.8. The IC50 in the experiment with rat calcitonin receptor [5] amounted to 18 nM; in experiment [6] it was 0.42 nM.
